Consider one molecule from publication PMC3823998, “Structural and Functional Characterization of the Redβ Recombinase from Bacteriophage λ” (PLoS ONE, 2013).

Numbering of substitutions follows the chain as printed.

Holding throughout (assay): EMSA; glutaraldehyde-fixed; ssDNA EMSA: 10 nM DNA, 50 mM potassium phosphate pH 6.0, 5 mM EDTA, 5% glycerol, 0.1 mg/ml BSA, 37°C, 40 min, then 0.1% glutaraldehyde; second-strand EMSA: 5 nM each strand, 20 mM Tris-HCl pH 7.5, 5 mM MgCl2, 1 mM DTT, 0.1 mg/ml BSA, 37°C
Details in all cases: protein: recombinant; tags: His6 removed; N-terminal GSH left; label: 5' Cy3
In general terms: In EMSA bound probe runs differently from free probe, usually more slowly.

One data set has as its target T1, Redβ V77A (Bacteriophage λ (Enterobacteria phage λ), UniProt P03698 1-261, V77A).
T1 sequence: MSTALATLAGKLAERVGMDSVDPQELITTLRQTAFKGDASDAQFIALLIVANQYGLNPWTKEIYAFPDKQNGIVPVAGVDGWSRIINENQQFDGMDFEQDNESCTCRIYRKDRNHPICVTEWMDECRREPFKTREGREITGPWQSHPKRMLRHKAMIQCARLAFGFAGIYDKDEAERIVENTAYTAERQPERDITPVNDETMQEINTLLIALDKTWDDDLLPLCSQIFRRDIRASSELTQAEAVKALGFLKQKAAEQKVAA

The target of another data set is T2, Redβ K132A (Bacteriophage λ (Enterobacteria phage λ), UniProt P03698 1-261, K132A).
T2 sequence: T1 sequence with A77V, K132A

For another data set, the target named is T3, Redβ Y64A (Bacteriophage λ (Enterobacteria phage λ), UniProt P03698 1-261, Y64A).
T3 sequence: T1 sequence with Y64A, A77V

Another data set addresses T4, Redβ D80A (Bacteriophage λ (Enterobacteria phage λ), UniProt P03698 1-261, D80A).
T4 sequence: T1 sequence with A77V, D80A

Another data set deals with T5, Redβ G78A (Bacteriophage λ (Enterobacteria phage λ), UniProt P03698 1-261, G78A).
T5 sequence: T1 sequence with A77V, G78A

For another data set, the target named is T6, Redβ R152A (Bacteriophage λ (Enterobacteria phage λ), UniProt P03698 1-261, R152A).
T6 sequence: T1 sequence with A77V, R152A

Take TGCGGATGGCTTAGAGCTTAATTGCTGAATCTGGTGCTGTAGCTCAACAT (ssDNA) [50-minus ssDNA]: the binding signal with Redβ V77A was 11 % of WT binding at 3 µM protein; with Redβ K132A, 82 % of WT binding at 3 µM protein; with Redβ Y64A, 98 % of WT binding at 3 µM protein; with Redβ D80A, 87 % of WT binding at 3 µM protein; in the data set with Redβ G78A, 33 % of WT binding at 3 µM protein; with Redβ R152A it was 13 % of WT binding at 3 µM protein.
